The source of these data is patent publication US20060246519A1, “MONOMERIC STREPTAVIDIN MUTEINS” (priority 2005, published 2006).

Series [1] can be described thus: Apparent molecular mass by gel filtration (Bio-Prep SE 100/17). Type of series: physicochemical. The text has this:
FIG. 6: Gel filtration profiles of streptavidin muteins. FIG. 6A. […] Bovine gamma-globulin (158 kDa), bovine serum albumin (66 kDa), ovalbumin (44 kDa), myoglobin (17 kDa) and vitamin B-12 (1.35 kDa) were used as molecular mass markers (closed circles) to calibrate the column. The logarithm of molecular mass was plotted versus Kav (Kav=(Ve−Vo)/(Vt−Vo); Ve, elution volume; Vo, void volume; Vt, bed volume). Positions of wild-type streptavidin (wt) and streptavidin muteins are represented by solid squares. FIG. 6B. Elution profile of M4 mutein (loaded at 2 mg/ml) on the gel filtration column.
(§1) Molecular mass of purified streptavidin and its muteins was estimated by both gel filtration and dynamic light scattering studies. Gel filtration was performed on the Bio-Rad biologic workstation equipped with a Bio-Prep SE 100/17 column that had been calibrated with molecular mass protein markers (Bio-Rad). Molecular mass was also estimated from the hydrodynamic radius of the mutein obtained using a DynaPro MS dynamic light scattering instrument (Protein Solutions, USA) that had been calibrated with lysozyme. Protein samples (2-3 mg/ml in PBS) were passed through a 0.02 μm filter (Whatman Anodisc 13) immediately prior to measurement. The size distribution profile was analyzed using the manufacturer's Dynamics V6 software.

For series [2], the system named is Biotin-conjugated bovine serum albumin. The series is described as follows: Kinetic analysis by surface plasmon resonance BIAcoreX biosensor. Type of series: binding. As to conditions: interaction with biotin. How it is done:
FIG. 8: Kinetic parameters for the interaction between M4 streptavidin mutein and biotin as monitored by BIAcore biosensor. A. On-rate (ka) determination. ka is derived from association analysis. kd is the slope of the plot of In(Ro/Rt) versus (t−to) where Ro is the response at an arbitrary starting time to; Rt is the response at time t.
The kinetic parameters (both on- and off-rates for interaction with biotin) of streptavidin muteins were determined in real time using the surface plasmon resonance based BIAcoreX biosensor. Biotin-conjugated bovine serum albumin immobilized on CM5 sensor chip was used to study the reversibility of biotin binding (Qureshi, 2001).
For orientation: SPR reads the build-up and loss of mass on a sensor chip optically.

Series [3] is described as follows: Dynamic light scattering (hydrodynamic radius, estimated molecular mass). Type of series: physicochemical. To be noted: for M (kDa) (Dynamic light scattering): calculated from measured RH using a protein calibration curve. How it is done:
as §1

A further series has as its system proteinase K. The experiment in a line: Proteinase K digestion of streptavidin and its muteins. Type of series: biochemical. To be noted: independent of the presence or absence of biotin; 5 μM proteinase K, 15 min, 30° C. How it is done:
Purified streptavidin and its muteins (30 μM monomer) were treated with proteinase K (Invitrogen, 5 μM) for 15 min at 30° C. in 50 mM Tris-HCl containing 5 mM CaCl2, pH 8.0. The reaction was stopped by precipitation with trichloroacetic acid (Ellison, 1995). Boiled samples of precipitated proteins were resolved by reducing SDS-PAGE. The same analysis was performed with streptavidin samples treated with biotin (1 mM final concentration) prior to proteinase K digestion.

The nature of a further series: Solubility of mutein. As to conditions: at a concentration of 2 mg/ml. Type of series: physicochemical.
Series [4] is described as follows: Degree of monomerization of non-boiled samples in SDS-PAGE / Western blot. Type of series: physicochemical. Here is the method: FIG. 3: Western blot analysis of cell culture supernatants from B. subtilis strains producing streptavidin muteins carrying a single mutation. 15 μl of non-boiled sample of culture supernatant was loaded to each lane. Samples on the left set were collected from B. subtilis strains cultured in super-rich medium without additional supplement of biotin. Samples on the right set were collected from B. subtilis strains cultured in super-rich medium with additional supplementation of biotin (20 μM). The blot was probed with polyclonal antibodies against streptavidin and developed using 4-chloro-1-napthol (Bio-Rad) as the colour development agent. […] M, molecular weight markers; wt, wild type streptavidin.
FIG. 4: Analysis of culture supernatants from B. subtilis strains producing streptavidin muteins carrying different combinations of mutations. All these strains were cultivated in super-rich medium supplemented with biotin (20 μM). The 15 μl of non-boiled samples of culture supernatants were loaded. FIG. 4A. Coomassie blue stained SDS-polyacrylamide gel. […]
Streptavidin muteins carrying a single amino-acid change at the selected site may be produced in their soluble form by B. subtilis via secretion. […] Since biotin can strengthen subunit interaction, samples were analyzed in the presence or absence of biotin (Laitinen, 2001; Gonzalez, 1999). […]
In general terms: In western blotting, separated proteins are transferred to a membrane and probed.

Series [5] can be described thus: Cross-linking reactions with sulfo-EGS. Type of series: physicochemical. To be noted: 10-fold molar excess sulfo-EGS, 30 min, room temperature. Here is the method:
Cross-linking of streptavidin and its muteins was carried out using sulfo-EGS [ethylene glycolbis(sulfosuccinimidyl succinate)] (Pierce) as the cross-linker. A typical reaction mixture (20 μl) contained the purified mutein (0.2 5 mg/ml) and sulfo-EGS (10-fold molar excess over the protein) in PBS. After 30 min at room temperature, the reaction was quenched with Tris-HCl (30 mM, pH 7.5). Aliquots of the cross-linking reaction samples were boiled and examined by SDS-PAGE. Lysozyme (Sigma, 0.25 mg/ml) was included in the study to help establish the optimal reaction conditions.

B1: M4: monomeric streptavidin quadruple mutant carrying T76R, V125R, V55T and L109T mutations (protein)
chain: MNIKKFAKQATVLTFTTALLAGGATQAFADPSKDSKAQVSAAEAGITGTWYNQLGSTFIVTAGADGALTGTYESAVGNAESRYTLTGRYDSAPATDGSGTALGWRVAWKNNYRNAHSATTWSGQYVGGAEARINTQWTLTSGTTEANAWKSTLRGHDTFTKVKPSAASIDAAKKAGVNNGNPLDAVQQ
modifications: Amino acid sequence for secretory production of streptavidin M4 in B. subtilis
notes: monomeric streptavidin quadruple mutant carrying T76R, V125R, V55T and L109T mutations
As for B1, the “M (kDa) (Gel filtration)” value in series [1] (+biotin) came out at 24.54 kDa; in series [1] (no biotin), 21.87 kDa. Besides, the “ka, on-rate” value in series [2] is recorded as 1.80 ± 0.04 × 10^4 M^−1s^−1. Besides, the “kd, off-rate” value in series [2] is 3.39 ± 0.02 × 10^−3 s^−1. For the same molecule, the “RH (nm) (Dynamic light scattering)” value is reported as 2.20 ± 0.14 nm in series [3] (+biotin) and 2.08 ± 0.31 nm in series [3] (no biotin). Moreover, the “M (kDa) (Dynamic light scattering)” value in series [3] (+biotin) is 21.5 kDa; in series [3] (no biotin), 18.1 kDa. For the same molecule, the “Susceptibility to proteinase K digestion” value in the series on proteinase K was “completely digested”. Moreover, the solubility result in the series “Solubility of mutein” is given as “excellent solubility”. The “Monomer (percentage of streptavidin in monomeric state)” value in series [4] (No additional biotin) and in series [4] (With additional biotin (20 μM)) was 100% each time. Besides, the “Oligomeric state after cross-linking with sulfo-EGS (SDS-PAGE)” value in series [5] is recorded as “migrated as monomers”.
